Measurements reported in the supplement of paper PMC7125110.
± gives the standard error. Variants at the floor of the assay were thinned out.

B1: glmS ribozyme (parent)
chain: AUAAAAGCGCCAGAACUACAGAAAUGUAGUUGACGAGGAGGAGGUUUAUCGAAUUUUCGGCGGAUGCCUCCAAA

Tests used:
Conditions in all cases: with glucosamine-6-phosphate
[1] = variants of: B1; test: self-cleavage kobs at 40 uM GlcN6P; higher = faster cleavage; RNA array
Procedure, shortened: (§1)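 Tiles of sequenced MiSeq chips were imaged over ~14 h at 37 °C. On them, barcoded ribozyme variants had been transcribed in situ by E. coli RNA polymerase and were tracked via a hybridised Cy3 probe while glucosamine-6-phosphate (40 μM to 10 mM) in HEPES/KCl/Mg(OAc)2 buffer flowed in. Per-tile medians, normalised to baseline and to non-cleaving reference variants, were fit to one- or two-exponential decays for kobs, and weighted Michaelis–Menten fits gave kcat and KM.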

[2] = variants of: B1; test: self-cleavage kobs at 160 uM GlcN6P; higher = faster cleavage; RNA array
Procedure, shortened: as §1

[3] = variants of: B1; test: self-cleavage kobs at 2500 uM GlcN6P; higher = faster cleavage; RNA array
Procedure, shortened: as §1

[4] = variants of: B1; test: self-cleavage kobs at 10000 uM GlcN6P; higher = faster cleavage; RNA array
Procedure, shortened: as §1

[5] = variants of: B1; test: self-cleavage kobs at 640 uM GlcN6P; higher = faster cleavage; RNA array
Procedure, shortened: as §1

| Variant | self-cleavage kobs at 40 uM GlcN6P [1] | self-cleavage kobs at 160 uM GlcN6P [2] | self-cleavage kobs at 2500 uM GlcN6P [3] | self-cleavage kobs at 10000 uM GlcN6P [4] | self-cleavage kobs at 640 uM GlcN6P [5] |
| --- | --- | --- | --- | --- | --- |
| AUAAAAGUGCCAGAACUACAGAAAUGUAGUUGACCAGGAGGAGGUUUAUCGAAUUUUCGGCGGAUGCCUCCAAA [C8U G35C] | < 1e-05 s⁻¹ | < 1e-05 s⁻¹ | < 1e-05 s⁻¹ | < 1e-05 s⁻¹ | – |
| AUAAAAGUGCCAGAACUACAGAAAUGUAGUUGACGAGGAGGAGGUUUAUGGAAUUUUGGGCGGAUGCCUCUAAA [C8U C50G C58G C71U] | 0.000808 ± 0.00019 s⁻¹ | – | – | 0.000113 ± 2.1e-05 s⁻¹ | – |
| AUAAAAGUACCAGAACUACAGAAAUGUAGUUGACGAGGAGGAGGUUUAUCGAAUUUUCGGCGGAUGCCUCCAAA [C8U G9A] | < 1e-05 s⁻¹ | < 1e-05 s⁻¹ | < 1e-05 s⁻¹ | < 1e-05 s⁻¹ | < 1e-05 s⁻¹ |
| AUAAAAGUUCCAGAACUACAGAAAUGUAGUUGACGAGGAGGAGGUUUAUCGAAUUUUCGGCGGAUGCCUCCAAA [C8U G9U] | < 1e-05 s⁻¹ | < 1e-05 s⁻¹ | < 1e-05 s⁻¹ | – | < 1e-05 s⁻¹ |
| AUAAAAGUGCCAGAACUACAGAAAUGUAGUUGACGAGGAGAAGGUUUAUCGAAUUUUCCGCGGAUGCCUCCAAA [C8U G41A G59C] | < 1e-05 s⁻¹ | – | – | < 1e-05 s⁻¹ | – |
| AUAAAAGUGCCAGAACUACAGAAAUGUAGUUGACGAGGAGGAGGUUUAUCGAAUUUUCGGCUGAUGCCGCCAAA [C8U G62U U69G] | 0.00021 ± 7.2e-05 s⁻¹ | – | – | 0.000358 ± 0.00015 s⁻¹ | – |
| AUAAAAGUGCCAGAACUACAGAAAUGUAGUUGACGAGGAGGAGGUUUAUCGAAUUUUCUGCGGAUGCCUCCAAA [C8U G59U] | < 1e-05 s⁻¹ | < 1e-05 s⁻¹ | < 1e-05 s⁻¹ | < 1e-05 s⁻¹ | < 1e-05 s⁻¹ |
| AUAAAAGUGCCAGAACUACAGAAAUGUAAUUGACGAGGAGGAGGUUUAUCGAAUUUUCGGCGGAUGCCUCCAAA [C8U G29A] | < 1e-05 s⁻¹ | – | < 1e-05 s⁻¹ | – | – |
| AUAAAAGUGCCAGAACUACAGAAAUGUACUUGACGAGGAGGAGGUUUAUCGAAUUUUCGGCGGAUGCCUCCAAA [C8U G29C] | < 1e-05 s⁻¹ | < 1e-05 s⁻¹ | < 1e-05 s⁻¹ | < 1e-05 s⁻¹ | < 1e-05 s⁻¹ |
| AUAAAAGUGCCAGAAAUACAGAAAUGUAGUUGACGAGGAGGAGGUUUAUCGAAUUUUCGGCGGAUGCCUCCAAA [C8U C16A] | < 1e-05 s⁻¹ | – | < 1e-05 s⁻¹ | < 1e-05 s⁻¹ | < 1e-05 s⁻¹ |
| AUAAAAGUGCCAGAACUACAGAAAUGUAGUUGACGAGGAUGAGGUUUAUCGAAUUUUCGGCGGAUGCCUACAAA [C8U G40U C70A] | < 1e-05 s⁻¹ | – | – | < 1e-05 s⁻¹ | – |
| AUAAAAGUGCCAGAACUACAGAAAUGUAGUUGACGAGGAGGAUUUUUAUCGAAUUUUCGGCGGAUGCCUCAAAA [C8U G43U G44U C71A] | < 1e-05 s⁻¹ | – | – | – | < 1e-05 s⁻¹ |
| AUAAAAGUGCCAGAACUACAGAAAUGUAGUUGACGAGGAGGAGGUUUAUCGAAUUUUCGGCGUAUGCCUCCAAA [C8U G63U] | < 1e-05 s⁻¹ | < 1e-05 s⁻¹ | – | – | < 1e-05 s⁻¹ |
| AUAAAAGUGCCAGAACUACAGAAAUGUAGUUGACGACGAGGUGGUUUAUCGAAUCUUCGGCGGAUGCCUCCAAA [C8U G37C A42U U55C] | < 1e-05 s⁻¹ | – | – | – | – |
| AUAAAAGUGCCAGAACUACAGAAAUGUAGUUGACGAGGAGGAGGUUUAUCGAAUUUUCGGCAGAUGCCUCCAAA [C8U G62A] | < 1e-05 s⁻¹ | < 1e-05 s⁻¹ | – | 7.26e-05 ± 1.2e-05 s⁻¹ | – |
| AUAAAAGUGCCAGAACUACAGAAAUGUAGUUGACGAGCAGGAACUUUAUCGAAUUUUCGGCGUAUGCCUCCAAA [C8U G38C G43A G44C G63U] | < 1e-05 s⁻¹ | – | – | < 1e-05 s⁻¹ | – |
| AUAAAAGUGCUAGAACUACAGAAAUGUAGUUGACGAGGAGGAGGUUUAUCGAAUUUUAGGCGGAUGGCUCCAAA [C8U C11U C58A C67G] | 0.00018 ± 3.1e-05 s⁻¹ | – | 0.000112 ± 4.5e-05 s⁻¹ | 0.000209 ± 5.4e-05 s⁻¹ | 0.00126 ± 0.00052 s⁻¹ |
| AUAAAAGUGCCAGAACUACAGAAAUGUAGUUGACGAGGAGGAGCUUUAUCGAUUUUUCGGCGUAUGCGUCCAAA [C8U G44C A53U G63U C68G] | < 1e-05 s⁻¹ | – | – | < 1e-05 s⁻¹ | – |
| AUAAAAGUGCCAGAACUACAGAAAUGUAGUUGACGAGUAGGAGGUUUAUCGAAUUUUCUGCGGAUGUCUCCAAA [C8U G38U G59U C67U] | < 1e-05 s⁻¹ | – | – | – | – |
| AUAAAAGUGCCAGAACUACAGAAAUGUAGUUGAGGAGGAGGAGGUUUAUCGAAUUUUCGGCGGAUGCCUCCAAA [C8U C34G] | < 1e-05 s⁻¹ | < 1e-05 s⁻¹ | – | < 1e-05 s⁻¹ | – |
| AUAAAAGUGCCAGAACUACAGAAAUGUAGUUGACGAGUAGGAGGUUUAGAGAAUUUUCGGCGGAUGCGUCCAAA [C8U G38U U49G C50A C68G] | 0.00105 ± 0.00026 s⁻¹ | – | – | 0.000545 ± 0.00014 s⁻¹ | – |
| AUAAAAGUCACAGAACUACAGAAAUGUAGUUGACGAUGAUAAGGUUUAUUGAAUUUUCGGCGGAUGCCUCCAAA [C8U G9C C10A G37U G40U G41A C50U] | < 1e-05 s⁻¹ | – | – | – | – |
| AUAAAAGUGCCAGAACUACAGAAAUGUAGUUGACGAGGAGGAGGUUUAUUGAAUUUUGGGUGGAUGUGUCCAAA [C8U C50U C58G C61U C67U C68G] | 0.000528 ± 0.0001 s⁻¹ | – | – | 0.00105 ± 0.00018 s⁻¹ | – |
| AUAAAAGUGCCAGAACUACAGAAAUGUAGUUGACGAGGAGGAGGUUUAUCCAAUUUUCGGCGGAUGCCUCCAAA [C8U G51C] | < 1e-05 s⁻¹ | < 1e-05 s⁻¹ | < 1e-05 s⁻¹ | < 1e-05 s⁻¹ | – |
| AUAAAAGUACCAGACCUACAGAAAUGUAGUUGACGGGGAGGAGGUUUACCGAAUUUGCGGCGGAUGCCUCCAAA [C8U G9A A15C A36G U49C U57G] | < 1e-05 s⁻¹ | – | – | – | – |
| AUAAAAGUGUCAGAACUACAGAAAUGUAGUUGACGAGGAGGAGGUUUAUCGAAUUUUCGGCGGAUGCCUGCAAA [C8U C10U C70G] | 5.14e-05 ± 2.4e-05 s⁻¹ | 8.73e-05 ± 2.6e-05 s⁻¹ | 0.000587 ± 0.00021 s⁻¹ | 5.37e-05 ± 1.7e-05 s⁻¹ | 0.000103 ± 2.5e-05 s⁻¹ |
| AUAAAAGUGCUCGAACUACAGAAAUGUAGUUGACGAGGAGGAGGUUUGUCGAAUUUUCGGCAGAUGUCUCCAAA [C8U C11U A12C A48G G62A C67U] | < 1e-05 s⁻¹ | – | < 1e-05 s⁻¹ | < 1e-05 s⁻¹ | – |
